Source: IntAct's records for PubMed 31515488

B1: WASH complex subunit 3 (Homo sapiens), Q9Y3C0 (parent)
chain: MDEDGLPLMGSGIDLTKVPAIQQKRTVAFLNQFVVHTVQFLNRFSTVCEEKLADLSLRIQQIETTLNILDAKLSSIPGLDDVTVEVSPLNVTSVTNGAHPEATSEQPQQNSTQDSGLQESEVSAENILTVAKDPRYARYLKMVQVGVPVMAIRNKMISEGLDPDLLERPDAPVPDGESEKTVEESSDSESSFSD
partner: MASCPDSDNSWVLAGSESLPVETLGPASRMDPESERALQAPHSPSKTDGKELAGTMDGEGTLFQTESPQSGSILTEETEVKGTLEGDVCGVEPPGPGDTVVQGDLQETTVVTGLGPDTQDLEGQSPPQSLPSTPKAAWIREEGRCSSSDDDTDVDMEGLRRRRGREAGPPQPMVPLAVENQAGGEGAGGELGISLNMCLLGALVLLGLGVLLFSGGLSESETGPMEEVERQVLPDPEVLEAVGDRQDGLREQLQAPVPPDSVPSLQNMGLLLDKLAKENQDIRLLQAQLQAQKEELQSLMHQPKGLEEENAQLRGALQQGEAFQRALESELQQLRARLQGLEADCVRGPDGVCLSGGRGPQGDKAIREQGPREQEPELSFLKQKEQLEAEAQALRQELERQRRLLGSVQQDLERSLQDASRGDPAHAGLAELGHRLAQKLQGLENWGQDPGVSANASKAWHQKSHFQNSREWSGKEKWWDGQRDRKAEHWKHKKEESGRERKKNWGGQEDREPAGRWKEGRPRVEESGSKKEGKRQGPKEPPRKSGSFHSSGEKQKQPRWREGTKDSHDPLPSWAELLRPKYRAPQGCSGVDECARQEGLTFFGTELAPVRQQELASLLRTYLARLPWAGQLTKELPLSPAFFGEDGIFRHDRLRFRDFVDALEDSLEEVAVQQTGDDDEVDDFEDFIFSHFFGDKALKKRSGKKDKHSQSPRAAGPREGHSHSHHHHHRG
B2: Programmed cell death 6-interacting protein (Homo sapiens), Q8WUM4 (parent)
chain: MATFISVQLKKTSEVDLAKPLVKFIQQTYPSGGEEQAQYCRAAEELSKLRRAAVGRPLDKHEGALETLLRYYDQICSIEPKFPFSENQICLTFTWKDAFDKGSLFGGSVKLALASLGYEKSCVLFNCAALASQIAAEQNLDNDEGLKIAAKHYQFASGAFLHIKETVLSALSREPTVDISPDTVGTLSLIMLAQAQEVFFLKATRDKMKDAIIAKLANQAADYFGDAFKQCQYKDTLPKEVFPVLAAKHCIMQANAEYHQSILAKQQKKFGEEIARLQHAAELIKTVASRYDEYVNVKDFSDKINRALAAAKKDNDFIYHDRVPDLKDLDPIGKATLVKSTPVNVPISQKFTDLFEKMVPVSVQQSLAAYNQRKADLVNRSIAQMREATTLANGVLASLNLPAAIEDVSGDTVPQSILTKSRSVIEQGGIQTVDQLIKELPELLQRNREILDESLRLLDEEEATDNDLRAKFKERWQRTPSNELYKPLRAEGTNFRTVLDKAVQADGQVKECYQSHRDTIVLLCKPEPELNAAIPSANPAKTMQGSEVVNVLKSLLSNLDEVKKEREGLENDLKSVNFDMTSKFLTALAQDGVINEEALSVTELDRVYGGLTTKVQESLKKQEGLLKNIQVSHQEFSKMKQSNNEANLREEVLKNLATAYDNFVELVANLKEGTKFYNELTEILVRFQNKCSDIVFARKTERDELLKDLQQSIAREPSAPSIPTPAYQSSPAGGHAPTPPTPAPRTMPPTKPQPPARPPPPVLPANRAPSATAPSPVGAGTAAPAPSQTPGSAPPPQAQGPPYPTYPGYPGYCQMPMPMGYNPYAYGQYNMPYPPVYHQSPGQAPYPGPQQPSYPFPQPPQQSYYPQQ
partner: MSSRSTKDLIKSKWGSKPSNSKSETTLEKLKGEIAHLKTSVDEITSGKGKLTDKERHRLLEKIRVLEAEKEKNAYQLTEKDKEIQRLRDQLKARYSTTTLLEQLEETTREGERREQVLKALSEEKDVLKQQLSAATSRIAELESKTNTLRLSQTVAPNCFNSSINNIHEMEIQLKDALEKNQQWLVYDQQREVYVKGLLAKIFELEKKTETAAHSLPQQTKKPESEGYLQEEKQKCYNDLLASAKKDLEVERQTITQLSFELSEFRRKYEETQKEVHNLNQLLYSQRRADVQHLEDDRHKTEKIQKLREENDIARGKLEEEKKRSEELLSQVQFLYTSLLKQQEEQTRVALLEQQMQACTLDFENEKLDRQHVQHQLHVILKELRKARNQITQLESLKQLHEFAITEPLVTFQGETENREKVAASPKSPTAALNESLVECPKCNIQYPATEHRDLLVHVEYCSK
B3: Protein FAM9B (Homo sapiens), Q8IZU0 (parent)
chain: MAAWGKKHAGKDPVRDECEERNRFTETREEDVTDEHGEREPFAETDEHTGANTKKPEDTAEDLTAKRKRMKMDKTCSKTKNKSKHALRKKQLKRQKRDYIHSLKLLNVLEEYITDEQKEEEEEEGEEEELIRIFQEQQKKWQQYRSVRRERLKEMKLLRDQFVKALEDFEDLCDRVFSDEDSELDN
partner: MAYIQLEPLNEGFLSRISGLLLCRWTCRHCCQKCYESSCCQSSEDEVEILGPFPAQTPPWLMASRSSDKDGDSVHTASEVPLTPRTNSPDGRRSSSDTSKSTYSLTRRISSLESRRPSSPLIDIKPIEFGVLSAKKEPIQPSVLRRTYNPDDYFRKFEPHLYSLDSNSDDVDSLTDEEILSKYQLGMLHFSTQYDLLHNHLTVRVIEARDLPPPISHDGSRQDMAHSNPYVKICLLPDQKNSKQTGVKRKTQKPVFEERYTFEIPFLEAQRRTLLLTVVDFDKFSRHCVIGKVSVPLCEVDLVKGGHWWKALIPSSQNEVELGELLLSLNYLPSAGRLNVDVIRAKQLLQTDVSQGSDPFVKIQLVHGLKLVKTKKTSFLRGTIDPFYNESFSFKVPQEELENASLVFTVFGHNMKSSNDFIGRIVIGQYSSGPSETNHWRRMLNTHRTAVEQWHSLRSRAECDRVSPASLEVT
B4: Protein LDOC1 (Homo sapiens), O95751 (parent)
chain: MVDELVLLLHALLMRHRALSIENSQLMEQLRLLVCERASLLRQVRPPSCPVPFPETFNGESSRLPEFIVQTASYMLVNENRFCNDAMKVAFLISLLTGEAEEWVVPYIEMDSPILGDYRAFLDEMKQCFGWDDDEDDDDEEEEDDY
partner: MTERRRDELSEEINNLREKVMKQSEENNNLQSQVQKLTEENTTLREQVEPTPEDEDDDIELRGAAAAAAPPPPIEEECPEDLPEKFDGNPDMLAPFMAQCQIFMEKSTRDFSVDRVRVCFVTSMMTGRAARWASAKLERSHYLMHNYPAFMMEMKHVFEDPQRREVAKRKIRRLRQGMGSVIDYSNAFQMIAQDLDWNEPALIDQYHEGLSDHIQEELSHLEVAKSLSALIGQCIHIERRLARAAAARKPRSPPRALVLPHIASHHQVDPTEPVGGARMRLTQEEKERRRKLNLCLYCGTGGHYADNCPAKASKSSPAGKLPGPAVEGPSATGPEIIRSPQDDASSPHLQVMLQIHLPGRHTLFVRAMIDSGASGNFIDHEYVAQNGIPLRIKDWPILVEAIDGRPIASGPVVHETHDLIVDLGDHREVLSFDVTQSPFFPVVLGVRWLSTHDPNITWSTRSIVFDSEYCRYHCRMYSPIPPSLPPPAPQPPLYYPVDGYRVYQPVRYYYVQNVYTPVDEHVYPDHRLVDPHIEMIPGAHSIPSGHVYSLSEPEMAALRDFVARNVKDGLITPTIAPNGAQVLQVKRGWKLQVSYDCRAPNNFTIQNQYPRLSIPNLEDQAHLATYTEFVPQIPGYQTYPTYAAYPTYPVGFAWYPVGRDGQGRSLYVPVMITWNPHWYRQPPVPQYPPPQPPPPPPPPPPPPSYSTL
B5: Transcription factor 12 (Homo sapiens), Q99081 (parent)
chain: MNPQQQRMAAIGTDKELSDLLDFSAMFSPPVNSGKTRPTTLGSSQFSGSGIDERGGTTSWGTSGQPSPSYDSSRGFTDSPHYSDHLNDSRLGAHEGLSPTPFMNSNLMGKTSERGSFSLYSRDTGLPGCQSSLLRQDLGLGSPAQLSSSGKPGTAYYSFSATSSRRRPLHDSAALDPLQAKKVRKVPPGLPSSVYAPSPNSDDFNRESPSYPSPKPPTSMFASTFFMQDGTHNSSDLWSSSNGMSQPGFGGILGTSTSHMSQSSSYGNLHSHDRLSYPPHSVSPTDINTSLPPMSSFHRGSTSSSPYVAASHTPPINGSDSILGTRGNAAGSSQTGDALGKALASIYSPDHTSSSFPSNPSTPVGSPSPLTGTSQWPRPGGQAPSSPSYENSLHSLQSRMEDRLDRLDDAIHVLRNHAVGPSTSLPAGHSDIHSLLGPSHNAPIGSLNSNYGGSSLVASSRSASMVGTHREDSVSLNGNHSVLSSTVTTSSTDLNHKTQENYRGGLQSQSGTVVTTEIKTENKEKDENLHEPPSSDDMKSDDESSQKDIKVSSRGRTSSTNEDEDLNPEQKIEREKERRMANNARERLRVRDINEAFKELGRMCQLHLKSEKPQTKLLILHQAVAVILSLEQQVRERNLNPKAACLKRREEEKVSAVSAEPPTTLPGTHPGLSETTNPMGHM
partner: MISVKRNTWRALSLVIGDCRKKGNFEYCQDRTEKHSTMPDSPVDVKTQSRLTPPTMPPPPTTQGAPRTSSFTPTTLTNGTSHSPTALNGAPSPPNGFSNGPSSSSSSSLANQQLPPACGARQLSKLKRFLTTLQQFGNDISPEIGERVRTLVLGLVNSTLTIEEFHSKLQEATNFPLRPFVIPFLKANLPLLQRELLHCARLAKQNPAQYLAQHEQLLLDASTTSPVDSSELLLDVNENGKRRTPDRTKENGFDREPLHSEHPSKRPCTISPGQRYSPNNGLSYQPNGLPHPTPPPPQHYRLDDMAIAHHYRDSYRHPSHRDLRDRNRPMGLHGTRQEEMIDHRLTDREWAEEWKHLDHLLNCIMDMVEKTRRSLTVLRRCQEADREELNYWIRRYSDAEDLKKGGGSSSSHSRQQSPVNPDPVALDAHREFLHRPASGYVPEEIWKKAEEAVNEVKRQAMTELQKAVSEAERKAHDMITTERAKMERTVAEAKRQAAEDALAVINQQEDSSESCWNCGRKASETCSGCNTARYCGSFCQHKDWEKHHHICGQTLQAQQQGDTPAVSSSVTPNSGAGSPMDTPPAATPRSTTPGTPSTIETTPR

Variants of: B1
Conditions: with pbip1_human PBXIP1, Q96AQ6

F44L was tested. Which “effect of a mutation on the interaction” value did it give?
The value was “with no effect”.

Variants of: B2
Conditions: with cep55_human CEP55, Q53EZ4

A309T was tested. Which “effect of a mutation on the interaction” value did it give?
The value was “with no effect”.

How did the “effect of a mutation on the interaction” value turn out when S730L was run?
The value was “with no effect”.

G778A was tested. Which “effect of a mutation on the interaction” value did it give?
The value was “with no effect”.

With N550S as the variant, how does the “effect of a mutation on the interaction” value read?
The value was “with no effect”.

With G429S as the variant, how does the “effect of a mutation on the interaction” value read?
Its value is “with no effect”.

Variants of: B3
Conditions: with syt17_human SYT17, Q9BSW7

For R23H, which “effect of a mutation on the interaction” value is on record?
Its value is “with no effect”.

Variants of: B4
Conditions: with peg10_human PEG10, Q86TG7

For L12H, which “effect of a mutation on the interaction” value is on record?
The value was “with no effect”.

Variants of: B5
Conditions: with mtg8_human RUNX1T1, Q06455

How did the “effect of a mutation on the interaction” value turn out when G300S was run?
The value was “with no effect”.

How did the “effect of a mutation on the interaction” value turn out when A458V was run?
The value was “with no effect”.

D565V was tested. Which “effect of a mutation on the interaction” value did it give?
The value was “with no effect”.
